# Data from PMC11055803, “ANCUT1, a novel thermoalkaline cutinase from Aspergillus nidulans and its application on hydroxycinnamic acids lipophilization” (Biotechnology Letters, 2024).
# Tested on: T1, CC(=O)Oc1ccc([N+](=O)[O-])cc1
# T1 construct: native secreted enzyme purified from culture broth (ammonium sulfate, ultrafiltration, continuous elution electrophoresis, renatured with Triton X-100); 22 kDa, pI 6; no glycosylation detected
# Test: Lineweaver-Burk, p-nitrophenol release
# Assay type: biochemical, Aspergillus nidulans
# Conditions: Tris-HCl pH 9.0, 37 °C, substrate 0.5-2 mM
# Text: Lineweaver-Burk, p-nitrophenol release on ANCUT1
substance,measurement,value
ANCUT1 (Aspergillus nidulans FGSC A4),Km,18.29 mM
same,Vmax,58800 µM/min
same,kcat,3.67 s⁻¹
same,kcat/Km,201 M⁻¹ s⁻¹
